{"source": "paper PMC8415317", "about": "(Genes & Development, 2021)", "molecules": {"B1": {"name": "PID-3^RRM: PID-3 RRM domain, residues 196–274 (protein)", "chain": "PRGADQENMLKISGYPGMLNTFGIAQLLTPYRVNGITITGAQSAVVALENKFQVYQAVQDFNGKKLDRNHKLQVSSLVV", "modifications": "left off: His6, N-terminal, state not stated | GST, N-terminal, state not stated"}, "B2": {"name": "TOST-1^FL: full-length TOST-1 (protein)", "chain": "MTTAIQYQVIPLADREHSNKVASILENKYKTATNKRITLNERFGVLEKGYTIQATEPETVKNDSDVFFVVHDRNLNSKKEFVENYLAKNPIVNSPEKVFEEEDKENAPTKKAVLKPSSTDEKKLTSSDIYIQEITRSILQSV", "modifications": "left off: His6, N-terminal, state not stated | Trx, N-terminal, state not stated"}}, "key": {"[1]": {"experiment": "SEC-MALS, molecular mass and oligomeric state", "assay_type": "physicochemical, C. elegans"}, "[2]": {"test_system": "ERH-2", "assay_type": "binding, C. elegans"}, "[3]": {"test_system": "PID-3/TOFU-6 interaction", "assay_type": "binding, C. elegans"}, "[4]": {"test_system": "TOFU-6^RRM", "experiment": "SEC assay, TOFU-6^RRM with PID-3^RRM", "assay_type": "binding, C. elegans", "conditions": "1:1.5 molar ratio, Superdex 200 Increase 10/300"}, "[5]": {"test_system": "Cy5-labeled 16-mer oligo(U) RNA", "experiment": "Fluorescence anisotropy RNA binding, Cy5-U16", "conditions": "100 nM Cy5-U16 RNA, pH 7.5, 15°C"}, "[6]": {"test_system": "FITC-labeled 28-mer RNA based on the 21U-3372 precursor", "experiment": "Fluorescence anisotropy RNA binding, FITC-28-mer pre-piRNA", "set-up": "species or system C. elegans", "conditions": "100 nM FITC-28-mer RNA, pH 7.5, 15°C"}, "[7]": {"target": "T1, ERH-2 (Caenorhabditis elegans, UniProt Q20057)", "T1 sequence (Q20057 1-113)": "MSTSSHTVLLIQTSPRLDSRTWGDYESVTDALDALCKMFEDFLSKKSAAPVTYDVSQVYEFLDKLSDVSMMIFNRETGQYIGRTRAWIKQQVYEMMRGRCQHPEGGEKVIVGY", "experiment": "Isothermal titration calorimetry, binding to ERH-2", "set-up": "species or system C. elegans", "conditions": "ITC, 20 μM ERH-2 in cell, 431 μM TOST-1^FL in syringe; N fixed at 1, not fitted"}, "[8]": {"target": "T2, ERH-2:PID-3^pep 1:2 (Caenorhabditis elegans, UniProt O76616+Q20057)", "T2 sequence (Q20057 1-113)": "T1 sequence (Q20057 1-113)", "T2 sequence (O76616 171-203 partner limits assumed)": "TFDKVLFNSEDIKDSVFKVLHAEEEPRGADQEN", "experiment": "Isothermal titration calorimetry, binding to ERH-2:PID-3^pep 1:2", "set-up": "species or system C. elegans", "conditions": "ITC, 25°C, 50 mM Tris, 250 mM NaCl, 1 mM TCEP, pH 7.50; 20 μM ERH-2:40 μM PID-3^pep in cell, 431 μM TOST-1^FL in syringe; average and SD of two or three measurements"}, "[9]": {"target": "T1, ERH-2", "experiment": "NMR-monitored titration of 15N-labeled ERH-2", "assay_type": "binding, C. elegans", "conditions": "TOST-1^FL added to 15N-labeled ERH-2, 25°C"}, "[10]": {"test_system": "ERH-2", "experiment": "Streptavidin pull-down, TOST-1/PID-1 mVenus-Strep bait with ERH-2", "assay_type": "binding, C. elegans", "conditions": "TOST-1 or PID-1 mVenus-Strep bait 10-20 μM, prey 1.2-fold molar excess, 4°C"}, "[11]": {"target": "T3, ERH-1 (Caenorhabditis elegans, UniProt Q22640)", "T3 sequence (Q22640 1-103)": "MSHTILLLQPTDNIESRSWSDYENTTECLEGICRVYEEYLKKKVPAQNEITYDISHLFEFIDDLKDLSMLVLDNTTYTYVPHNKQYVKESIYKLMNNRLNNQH", "experiment": "Streptavidin pull-down, TOST-1/PID-1 mVenus-Strep bait with ERH-1", "assay_type": "binding, C. elegans", "conditions": "TOST-1 or PID-1 mVenus-Strep bait 10-20 μM, prey 1.2-fold molar excess, 4°C"}, "[12]": {"test_system": "ERH-2/PID-3", "experiment": "SEC assay, ERH-2/TOST-1/PID-3 complex", "assay_type": "binding, C. elegans", "conditions": "full-length ERH-2, TOST-1 and PID-3, 1:1 ratio"}, "[13]": {"test_system": "ERH-2 alone, ERH-2/PID-3 subcomplex, full PETISCO", "experiment": "Streptavidin pull-down, TOST-1-mVenus-Strep with ERH-2, ERH-2/PID-3 or PETISCO", "assay_type": "binding, C. elegans", "conditions": "TOST-1-mVenus-Strep as bait"}}, "note": "“Also recorded” adds a separate entry of the source. Marks after values point to notes of the source that are not given here.", "data": [{"molecule": "B1", "values": [{"measurement": "oligomeric state", "setting": "[1]", "value": "homodimers"}, {"measurement": "binding to ERH-2 in GST pull-down", "setting": "[2]", "value": "failed to bind ERH-2"}, {"measurement": "PID-3/TOFU-6 interaction in pull-down", "setting": "[3]", "value": "the RRM domains of PID-3 and TOFU-6 mediate the interaction between the two proteins"}, {"measurement": "PID-3^RRM/TOFU-6^RRM interaction by SEC", "setting": "[4]", "value": "This is supported by SEC"}, {"measurement": "relative RNA binding affinity", "setting": "[5]", "value": "lowest binding affinity"}, {"measurement": "relative RNA binding affinity", "setting": "[6]", "value": "lowest binding affinity"}]}, {"molecule": "B2", "values": [{"measurement": "N (stoichiometry)", "setting": "[7]", "value": "1^c"}, {"measurement": "Kd", "setting": "[8]", "value": "15 ± 2", "unit": "µM"}, {"measurement": "amide CSPs of full-length protein vs peptide", "setting": "[9]", "value": "very similar amide CSPs"}, {"measurement": "binding to ERH-2 in streptavidin pull-down", "setting": "[10]", "value": "Both PID-1 and TOST-1 bound ERH-2; also recorded: more efficient bait than PID-1"}, {"measurement": "binding to ERH-1 in streptavidin pull-down", "setting": "[11]", "value": "interacted with ERH-1; also recorded: more efficient bait than PID-1"}, {"measurement": "trimeric complex formation by SEC", "setting": "[12]", "value": "elutes at smaller elution volumes than the dimeric subcomplexes"}, {"measurement": "pull-down of ERH-2 alone, with PID-3 or within PETISCO", "setting": "[13]", "value": "pulled down ERH-2 in all conditions; also recorded: more ERH-2 is pulled down when ERH-2 is in complex with PID-3 or as part of PETISCO"}]}]}
